# Laboratory results from patent publication US9744220B2, “Compositions and methods for treating inflammatory diseases” (priority 2013, dated 2017).
# Entries after “also recorded” stand apart in the source; their conditions may differ.
# B1: sPDNF: N-terminal short-form of T cruzi PDNF that contains Trk-binding sites, recombinant; amino acids 1-588 of SEQ ID NO: 2; JR-100 is the commercial name (protein, listed as Trypanosoma cruzi)
# chain: MGKTVVVASRMFWLMFFVPLLLAICPSEPAYALAPGSSRVELFKRKNSTVPFEDKAGKVTERVVHSFRLPALVNVDGVMVAIADARYDTSNDNSLIDTVAKYSVDDGETWETQIAIKNSRVSSVSRVVDPTVIVKGNKLYVLVGSYYSSRSYWSSHGDARDWDILLAVGEVTKSTAGGKITASIKWGSPVSLKKFFPAEMEGMHTNQFLGGAGVAIVASNGNLVYPVQVTNKKKQVFSKIFYSEDDGKTWKFGKGRSDFGCSEPVALEWEGKLIINTRVDWKRRLVYESSDMEKPWVEAVGTVSRVWGPSPKSNQPGSQSSFTAVTIEGMRVMLFTHPLNFKGRWLRDRLNLWLTDNQRIYNVGQVSIGDENSAYSSVLYKDDKLYCLHEINTDEVYSLVFARLVGELRIIKSVLRSWKNWDSHLSSICTPADPAASSSESGCGPAVTTVGLVGFLSGNASQNVWEDAYRCVNASTANAERVRNGLKFAGVGGGALWPVSQQGQNQRYRFANHAFTLVASVTIHEAPRAASPLLGASLDSSGGKKLLGLSYDEKHQWQPIYGSTPVTPTGSWETGKRYHLVLTMANKI
# Key:
# [1] = system: cardiac and hepatic stem cell markers; assay: Intravenous sPDNF into naïve mice, stem cell markers by real time PCR; type: in vivo; conditions: independently of TLR signaling
# Description: FIG. 2A is a graph showing stem cell marker expression in mice administered sPDNF. One set of three wild type C57BL/6 mice received intravenous (IV) PBS without (PBS) or with sPDNF (2 mg/kg) at 0, 3 and 24 hours (sPDNF 1d), and a second set IV sPDNF (2 mg/kg) for 6 days (sPDNF 6d). Mice were sacrificed 3 hr post injection and the indicated stem cells markers were quantified in the ventricles by real time PCR, and normalized to HPRT; *, p<0.05, **, p<0.001, ***, p<0.0001; SCF, stem cell factor, ns, not significant. FIG. 2B is a graph showing stem cell marker expression in MyD88^−/− mice administered sPDNF. TLR-deficient MyD88^−/− mice (C57BL/6 background) (2/group) were injected IV with a single dose of sPDNF (2 mg/kg), sacrificed at 3 hours post-injection, and the indicated cardiac stem cell markers assessed by qPCR. […] Cardiac Sca-1 and SCF transcripts were quantified by qPCR; **, P<0.001; ***, P<0.0005. FIG. 2D is a graph showing quantitation of Sca-1 expression in various organs of mice administered sPDNF. C57BL/6 mice (3 per group), average of two experiments) were injected IV with sPDNF at 4 mg/kg body weight or PBS, sacrificed 3 hours later, and Sca-1 mRNA quantified by qPCR in the liver, heart, colon and bone marrow (*, P<0.05, **, P<0.001; ns, not significant; dotted line represents Sca-1 mRNA of vehicle-treated mice set at 1.0, data are representative of 2 experiments. […]
# [2] = system: cardiac inflammatory and fibrogenic markers; assay: Chronic Chagas cardiomyopathy (CCC) mice, transcripts by qPCR; type: in vivo
# Description: FIG. 3A depicts in vivo experimental design, groups, treatment and timeline for the infective and anti-inflammatory effects of sPDNF. C57BL/6 mice (7 per group) were injected intraperitoneally with T cruzi Colombian strain (8×10^2 per mouse) and, four months later, intravenously with PBS (vehicle) or sPDNF (1 mg/kg body weight) at 0, 3, and 24 hours, weekly for 3 weeks. Mice were sacrificed 50 days after the first set of IV sPDNF treatment. FIG. 3B are images of heart (ventricle) paraffin-embedded, sectioned, and stained with H&E. Arrows indicate foci of inflammatory infiltrates, which were abundant in sham-treated (IV PBS) CCC mice and rare in IV sPDNF-treated CCC mice. Similar histology was found in other tissue sections and in a distinct set of sPDNF-treated and PBS-sham mice.
# FIG. 5A is a graph showing transcript expression for inflammatory cytokines in hearts of the infected mice, as assessed by qPCR for the indicated transcripts, which were normalized to HPRT and made relative to uninfected vehicle-treated mice. Values for IFN-λ were reduced by 3-fold; **, p<0.01. FIG. 5B is a graph showing transcript expression for inflammatory cell markers in hearts of the infected mice, as assessed by qPCR for the indicated transcripts, which were normalized to HPRT and made relative to uninfected vehicle-treated mice. Values for CD8, and CD4 were reduced by 15-, and 1.5-fold, respectively; **, p<0.01, ***, p<0.001. FIG. 5C is a graph showing transcript expression for inflammatory cytokines in hearts of the infected mice, as assessed by qPCR for the indicated transcripts, which were normalized to HPRT and made relative to uninfected vehicle-treated mice. FIG. 5D is a graph showing percent reduction of cardiac inflammatory markers of mice chronically infected with T cruzi, using data from FIGS. 5A-5C. Baseline represents mean transcripts of uninfected mice. FIG. 5E is a graph showing expression of TSG-6 transcripts in heart and liver of T cruzi infected mice. Heart (ventricles+atria) and liver of mice (5 per group) infected acutely (25-day post injection) (Acute) or chronically (6-months PI, CCC, same as in FIG. 3) with T cruzi Colombian were assessed for TSG-6 transcript by qPCR and plotted relative to uninfected mice set at 1.0; **, P<0.001. […] is a graph showing TSG-6 serum levels assessed by ELISA (MyBiosource) in mice uninfected (Un-Inf) or bearing CCC and injected IV with vehicle PBS or sPDNF following the protocol described in FIG. 3. Bars represent the average (±SD) of three mice per point; two separate experiments, **, P<0.01.
# [3] = Limulus amebocyte assay; conditions: sPDNF preparations
# Description: To ensure that the response observed in wild type mice was not due to TLR activation, MCP-1 and FKN response to IV sPDNF was assessed in TLR-deficient MyD88^−/− mice (23).
# PDNF was cloned from the T cruzi Silvio X-10/4 strain (GenBank accession number AJ002174). PDNF and a N-terminal short-form of PDNF (sPDNF) that contains Trk-binding sites, were expressed in BL21 (DE3) bacteria, and purified by Ni-affinity chromatography, as described previously (4, 12, 18, 60). Buffers were prepared in sterile endotoxin-free water, and sPDNF preparations screened with the Limulus amebocyte assay have undetectable levels of endotoxin. sPDNF migrates as a 68 kDa protein on a SDS-PAGE gel. PDNF protein was buffer exchanged into PBS (0.01 M phosphate buffered saline, pH 7.2), filter-sterilized (0.22 μm), and kept at 4° C. PDNF was quantified by scanning densitometry (Bio-Rad, GS-800) of SDS-PAGE gels stained with Coomassie brilliant blue.
# [4] = hearts of infected (CCC) mice, FIG. 5B
molecule,measurement,setting,value
B1,expression of cardiac and hepatic stem cell markers,[1],increased expression
same,expression of anti-inflammatory TSG-6 in the heart and liver,"[2]; CCC mice, IV",increased expression; also recorded: restored TSG-6 transcript to levels seen in acutely infected mice
same,transcripts of cardiac inflammatory and fibrogenic markers,"[2]; CCC mice, IV",global decrease
same,IFN-λ transcript values reduced,"[2]; hearts of infected (CCC) mice, FIG. 5A",3 fold
same,CD4 transcript values reduced,[2]; [4],1.5 fold
same,CD8 transcript values reduced,[2]; [4],15 fold
same,"cardiac inflammation (CD8 lymphocyte infiltrates, pro-inflammatory cytokines such as tumor necrosis factor-α)","[2]; model of chronic Chagas disease, intravenous",reduced
same,levels of endotoxin,[3],did not have detectable levels
